Data on one substance can be found in publication PMC8121815 (Nature Communications, 2021).

Common to all, as to experiment: ITC
In assay [1] the target is human TOM70 (106-608) E477A, C-terminal His-tagged (human) (UniProt O94826).
Assay [2] deals with human TOM70 (106-608) E549I, C-terminal His-tagged (human) (UniProt O94826).
The target in assay [3] is human TOM70 (106-608) H583Q, C-terminal His-tagged (human) (UniProt O94826).
In assay [4] the target is human TOM70 (106-608) E549A, C-terminal His-tagged (human) (UniProt O94826).
Assay [5] addresses hTOM70 mutant H583Q (human).
Assay [6] has as its target human TOM70 (106-608) D545A, C-terminal His-tagged (human) (UniProt O94826).

pKd: −log10 of the molar value.

Chain of C-peptide (SARS-CoV-2 orf9b core sequence 44-70) (P0DTD2 44-70 limits assumed): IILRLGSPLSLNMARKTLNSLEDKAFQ

On to “C-peptide (SARS-CoV-2 orf9b core sequence 44-70) (from UniProt P0DTD2 44-70)”, for which the Ka in assay [1] turned out to be 3870 M⁻¹; in assay [2] it was 93800 M⁻¹; in assay [3], 1.01e+06 M⁻¹; in assay [4], 43800 M⁻¹; in assay [6], 20100 M⁻¹. In addition, the pKd is 3.59 in assay [1]; 4.97 in assay [2]; 4.64 in assay [4]; 6.00 in assay [5]; 4.30 in assay [6]. For the same substance, the stoichiometry N in assay [1] was found to be 0; in assay [2], 1.7; in assay [3] it was 1.5; in assay [4], 1.5; in assay [6], 1.

By pKd is commonly meant the Kd on a negative log10 scale, so that one unit is a factor of ten. Lower therefore signals a large Kd. As a reminder, the stoichiometry N is the number of molecules, sites or subunits per partner or assembly.
